Measured values: paper PMC7223222

Target: pmE2:pFc2 fusion protein (transmembrane domain-deleted classical swine fever virus envelope glycopro (classical swine fever virus))
Experiment: SEC

pmE2:pFc2 fusion protein (transmembrane domain-deleted classical swine fever virus envelope glycopro (Fc fusion)
stoichiometry N: 3
